This test has as its target wild-type H3 A/Hong Kong/1/1968 hemagglutinin, recombinant full-length soluble ectodomain (Influenza A virus A/Hong Kong/1/1968 …, UniProt Q91MA7). Description: ELISA. The conditions noted are these: both partners purified. On the technique in general: In an ELISA, binding on a coated surface is turned into a signal by an enzyme label.

B1: HC45 IgG (humanized constant domains), directed to the vestigial esterase domain (antibody, V domains shown)
VH: QVQLQQPGAELVRPGASVKLSCKASGYTLTTYWMNWFKQRPDQGLEWIGRIDPYDSETHYNQKFKDKAILTVDRSSSTAYMQLSSLTSEDSAVYYCTRFLQITTIIYGMDYWGQGTSVTVSS
VL: DVVMTQTPLSLPVSLGDQASISCRSSQTLVHSNGNTYLHWYLQKPGQSPKLLIYKVSNRFSGVPDRFSGSGSGTDFTLKISRVEAEDLGVYFCSQNTHVPYTFGGGTKLEIK
notes: source: 293F suspension cells, transient, purified from supernatants (Protein G); copies: 2 + 2
On to B1, for which the binding result is listed as “binds”.

B2: FI6 IgG, stem-directed (antibody, V domains shown)
VH: QVQLVESGGGVVQPGRSLRLSCAASGFTFSTYAMHWVRQAPGKGLEWVAVISYDANYKYYADSVKGRFTISRDNSKNTLYLQMNSLRAEDTAVYYCAKDSQLRSLLYFEWLSQGYFDYWGQGTLVTVSS
VL: not shown
notes: as for B1
For the molecule B2, the binding result was “binds”.

B3: 8H10 IgG (humanized constant domains), directed to the HA trimer interface (antibody, V domains shown)
VH: EVQLQESGEGLVKPGGSLKLSCAASGFTFSNYDMSWVRQTPEKRLEWVAYISSGGDYIYYADTVKGRFTISRDNARNTLYLQMSSLKSEDTAMYYCTRNYYYGSLPVWFAYWGQGTLVTVSG
VL: QAVVTQESALTTSPGETVTLTCRSSTGAVTTSNYANWVQEKPDHLFTGLIGGTNNRAPGVPARFSGSLIGDKAALTITGAQTEDEAIYFCALWYSNHSWVFGGGTKLTVL
notes: as for B1
For B3, the binding result is reported as “binds”.

B4: HC19 IgG (humanized constant domains), RBS-directed (antibody, V domains shown)
VH: QVQLKESGPGLVAPSQSLSITCTVSGFLLISNGVHWVRQPPGKGLEWLGVIWAGGNTNYNSALMSRVSISKDNSKSQVFLKMKSLQTDDTAMYYCARDFYDYDVFYYAMDYWGQGTSVTVSS
VL: QAVVTQESALTTSPGETVTLTCRSSTGAVTTSNYANWVQEKPDHLFTGLIGGTNNRAPGVPARFSGSLIGDKAALTITGAQTEDEAIYFCALWYSNHWVFGGGTKLTVL
notes: as for B1
On to B4, for which the binding result is given as “binds”.

The values are drawn from article PMC8528956 (Frontiers in Immunology, 2021).
